The data set in a line: yeast display, Sf9 membrane polyspecificity reagent, FACS + sequencing; frameworks hold sequencing errors. In outline:
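Galactose-induced (36–48 hours) yeast carrying a synthetic nanobody display library were exposed to 10% biotinylated, detergent-solubilized Sf9 membrane reagent at 4 °C for 1 hour. FACS followed streptavidin microbead enrichment, using low and high (top ~1%) gates for expression (anti-HA) and reagent binding (streptavidin). Colony PCR, MiSeq 2 × 250 sequencing and CDR-length filtering followed. Labels for polyreactivity reflect the gate of origin.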
With “QVQLVESGGGLVQAGGSLRLSCAPSGRIFLPYAMGWYRPAPGKEWELVAGISSGGSTKYADSVKGRFTISRDNAMNTVYLQMNSLKPEDTAVYYCNRRFPIYCSRFGYYYWGQGTQVTVSS”, the “polyreactivity (PSR sort gate)” value was “high polyreactivity”.
As to “QVQLVESGGGLVQAGGSLRLSCAPSGRIFTPYAMGWYRQAPGKERELVAVIRDGSTYYADSVKGRFTISRDNAKNTVYLKMNSLKPEDTAVYYCRYDIWVWWSGAYDYWGQGTQVNVSS”, the “polyreactivity (PSR sort gate)” value is “low polyreactivity”.
The value for “QVQLVESGGGLVQAGGSLRLSCAPSGRIFVYYTMGWYRQAPGKERELVAAITGSGGSTYYADSVKGRFTISRDNAKYTVYLQMNSLKPVDTAVYYCAVYDSYRKFKYWGQGTQVTVSS” was “high polyreactivity”; that for “QVQLVESGGGLVQAGGSLRLSCAPSGRIFWFNMGCYRQAPGKERELVAAINSGGRTNYADSVKGRFTISRDNAQNTVYLQMNSLKPEDTAVYYCNARYYQVRRWYHYDYSGQGTQVTVSS” was “high polyreactivity”; that for “QVQLVESGGGLVQAGGSLRLSCAPSGRIFYTKAMGWYRPAPGKERELVATIRISGGNTYYADSVKGRFTISRDNAKNTVYLQMNSLKPEDTAVYYCAARARPRYYRPPYDYWGQGTQVTVSS” was “high polyreactivity”.
For the sequence “QVQLVESGGGLVQAGGSLRLSCAPSGRILAYYAMGWYRQAPGKEREFVAAIDSGSSTNYADSVKGRFTISRDNAKNTVYLQMNSLKPEDTAVYYCAARIRWWYYYLRSQTYYYWGQGTQVTVSS”, the “polyreactivity (PSR sort gate)” value was “low polyreactivity”.
Take “QVQLVESGGGLVQAGGSLRLSCAPSGRTFGGYVRGRYRQAPGKERELVATITYSGGSTHYADSVKGRFTISRDNAKITVYLQMNSLKPEDTAVYYCARRRSYRYPSEYNYWGQGTQVTVSS”: the “polyreactivity (PSR sort gate)” value is on record as “high polyreactivity”.
To “QVQLVESGGGLVQAGGSLRLSCAPSGRTFPYYAIGSYRQAPGKERELVARITGSGTSTYYADSVKGRFTISRDNAKNTVYLQMNSLKPEDTAVYYCAAPKYGSYYIADYEYWGQGTQVTVSS” belongs “low polyreactivity”; to “QVQLVESGGGLVQAGGSLRLSCAPSGRTFVSNAMGWYRQAPGKERELVAGINWTDDSTYYADSVKGRFTISRDNAKNTVYLQMNSLKPEDTGVYFCGAYSWEFAWPRFDYWGQGTKVTVSS”, “low polyreactivity”.
With “QVQLVESGGGLVQAGGSLRLSCAPSGRTFVWNAMGWYRQAPVKERELVAAITSGGSTNYADSVKGRFTISRDNAKNTVYLQMNSLKAEDTAVYYCAAYPDYYEDDYWGQGTQVTVSS”, the “polyreactivity (PSR sort gate)” value is recorded as “low polyreactivity”.
The value for “QVQLVESGGGLVQAGGSLRLSCAPSGRTFWAYAMGWYRQAPGKERELVAAITRSGTTTSYADSVKGRFTISRDNAKNTVYLQMNSLKPEDTAVYYCNARPIRVYINSAQHYDYWGQGTQVTVSS” was “high polyreactivity”.
To “QVQLVESGGGLVQAGGSLRLSCAPSGRTFYIYAMGWSRQAPGKERELVAAITRSGGSTYYADSVKGRFTISRDNAKNTVYLQMNSLKPEDTAVYYCNARRWITSDYWGQGTQVTVSS” belongs “high polyreactivity”.
To “QVQLVESGGGLVQAGGSLRLSCAPSGRTFYTYAMGWYRQAPGKERELVAAITRRGGSTFYADSVKGRFTISLDNAKNPVDLQMNSLKPEDTAVYYCAAGVVWSYSLYSIYEYDYWGQGTQVTVSS” belongs “high polyreactivity”; to “QVQLVESGGGLVQAGGSLRLSCAPSGRTFYWYTMGWYRQAPGKERELVAAISSSDGSTYYADSVKGRFTISRDNAKNTVYLQMNSLKPEDTAVYYCAADLYYYRYWYRFNYWGQGTQVTVSS”, “high polyreactivity”.
As for “QVQLVESGGGLVQAGGSLRLSCAPSGRTIGRNAMGWSRQAPGKERELVAAISASGSRTYYAESVKGRFTISRDNAMNTVYLQMNSLKPVDTAVYYCNAVYRTLYYRFYYWGQGTQVTVSS”, the “polyreactivity (PSR sort gate)” value was “high polyreactivity”.
For the sequence “QVQLVESGGGLVQAGGSLRLSCAPSGRTLRVNTMGWYRQAPGKERELVAAISSGGSRTNYADSVKGRFTISRDNAKNTVYLQMNSLKPEDTAVYYCNKYNRFVYSPPSVYWGQGTQVTVSS”, the “polyreactivity (PSR sort gate)” value is listed as “high polyreactivity”.
The value for “QVQLVESGGGLVQAGGSLRLSCAPSGRTYLTYVMGWYRQAPGKERELVAAITRGGRTNYADSVKGRFTISRDNAKNTVYLQMNSLQPEDTAVYYCARDIHSVHNNRDKHDYDDWGQGTLVTVSS” was “low polyreactivity”; that for “QVQLVESGGGLVQAGGSLRLSCAPSGSIFIYYAMGWYRPAPGKERELVAAINIGGSTYYADSVKGRFTISRDNAKNSVYLQMKSLKPEDTAVYYCNAATWYRVYPYYIIYDYWGQGTQVTVSS” was “low polyreactivity”; that for “QVQLVESGGGLVQAGGSLRLSCAPSGSIFLQYTMGWYRQAPGKERELVAAITESDGSTYYADSVKGRFTISRDNAKNTVYLQMNSLKPEDTAVYYCAADVVYFKYWDKYDYWGQGTQVTVSS” was “low polyreactivity”.
To “QVQLVESGGGLVQAGGSLRLSCAPSGSIFPSYAMGWYRQAPGKERELVAAISRSAGSTYYADSVKGRFTISRDNAKNTVYLQMNSLKPEDPAVYYCAADGYSSRYRYDYWGQGTQVTVSS” belongs “low polyreactivity”; to “QVQLVESGGGLVQAGGSLRLSCAPSGSIFRKNAMGWYRQAPGKERELVAAITGTGRTTYADSVKGRFTISRDNAKNTVYLQMNSLKPEDTAVYYCAAESVSSGDNASRYDYWGQGTQVTVSS”, “low polyreactivity”; to “QVQLVESGGGLVQAGGSLRLSCAPSGSIFSWYAMGWYRQAPGKERELVAAIDDDDSTNYADSVKGRFTISRDNAKNTVYLQMNSQKPEDTAVYYCNTRSRPYWYIYRPGDYWGQGTQVTVSS”, “low polyreactivity”.
The value for “QVQLVESGGGLVQAGGSLRLSCAPSGSIFYLNAMGWYRQAPGKERELVAAISKRGSRTYYADSVKGRFTISRDNAKNTVYLQMNSLKPEDTAVYYCNALDTPGYNTEPARQYDHWGQGTQVTVSS” was “high polyreactivity”; that for “QVQLVESGGGLVQAGGSLRLSCAPSGSIFYRNAMGWYIQAPGKERELVAAISWSAARTYYADSVKGRFTISRDNAKNTVYLQMNSLKPEDTAVYYCATLYSYNYWGQGTQVTVSS” was “high polyreactivity”.
As to “QVQLVESGGGLVQAGGSLRLSCAPSGSIFYSYAMVWYRQAPGKERELVASISRGGTTYYADSVKGRFTISRDNAKNTVYLQMNSLKPEDTAVYYCAAELSEWTNGFDYWGQGTQVTVSS”, the “polyreactivity (PSR sort gate)” value is “high polyreactivity”.
The value for “QVQLVESGGGLVQAGGSLRLSCAPSGSISFSNALGWYRQAPGKERELVASITSGGSTKYADSVKGRFTFSRDNAKNTVYLQMNSLQPEDTAVYYCNADSPESVYDEYDYWGQGTQVTVSS” was “low polyreactivity”; that for “QVQLVESGGGLVQAGGSLRLSCAPSGSSKLMLWDGIDRRLGKKGSWLPLFVLVVLRNYADSVKGRFTISRDNANNTVYLQMNSLKPEDTAVYYCAATPIGSGGWGDYWGQGTQVTVSS” was “low polyreactivity”.
The value for “QVQLVESGGGLVQAGGSLRLSCAPSGSTFTINVMGWYRQAPGKERELVAAINGGGRTNYADSVKGRFTISRDNAKNTVYLQINSLIPEDTAVYYCAADGLSNVRQMDYWGQGTQVTVSS” was “low polyreactivity”; that for “QVQLVESGGGLVQAGGSLRLSCAPSGSTFYPYAMGWYRQAPGKERELVAAISSGGSTYYADSVKGRFTISRDNAKNTVYLQMNSLKPEDTAVYYCAADFYYAYYWGQGTQVTVSS” was “low polyreactivity”.
For “QVQLVESGGGLVQAGGSLRLSCAPSGSTFYSNAMGWYRQAPGKERELVASISWSSGSTYYADSVKGRFTISRDNAKNTVYLQMNSLKPEDTAVYYCNKRPVILYDYWGQGTQVTVSS”, the “polyreactivity (PSR sort gate)” value is “low polyreactivity”.
To “QVQLVESGGGLVQAGGSLRLSCAPSGSTFYSYAMGGYRQAPGKERELVAAITVSGTSTYYADSVKGRFTISRDNAKNTVYLQMNSLKPEDTAVYYCAARPRRRYYGYDSWGQGTQVTVSS” belongs “high polyreactivity”.
As for “QVQLVESGGGLVQAGGSLRLSCAPSGSTLFYNAMGCYRQSPGKETELVATISGGGVSTYYADSVNGRFRISRDNAKNSVYLQMYSLKPEDTAVYYCAAAGWSEGGYDYWGQGTQVTVSS”, the “polyreactivity (PSR sort gate)” value is reported as “low polyreactivity”.
To “QVQLVESGGGLVQAGGSLRLSCAPSGSTSFSNDMGWYRQAPGKERELVAAIRSGGSTDYADSVKGRFTISRDNAKNTVYLQMNSLKPEDTEVYYFNATQYDAVYPGYARLYDYWGQGTQVTVSS” belongs “low polyreactivity”; to “QVQLVESGGGLVQAGGSLRLSCAPSGSTYSRYAMGWYRQAPGKERELVAAISRSGGTTNYADSVKWRFTISRDNAKNTVYLQMNSLKPEDTAVYYCAAYLPFRQGRYGYEYWGQGTQVTVSS”, “high polyreactivity”.
Consider “QVQLVESGGGLVQAGGSLRLSCAPSGYIPYWYAMGWYRQAPGKERELVAAIDWSGASTNYADSVKGRFTISRDNAKNTVYLQMNSLKPEDTAVYYCAADAVSPDYFVWGDYWGQGTQVTVSS”, for which the “polyreactivity (PSR sort gate)” value is reported as “high polyreactivity”.
To “QVQLVESGGGLVQAGGSLRLSCAPSVSINNHYAMGWYRQAPGKERELVAAISRSGGLTYYADSVKGRFTISRDNAKNTVYLQMNCLIAEDTAVYYCDAGTSWPWYQRDYWGQGTQVTVSS” belongs “low polyreactivity”.
Take “QVQLVESGGGLVQAGGSLRLSCASGLTFYRYAMGWYRQAPGKERELVAAINVRGGSTYYADSVKGRFTISRDNAKNTVYLQMNSLKPEETAVYYCAAYYPGFSYRYDYWGQGTQVTVSS”: the “polyreactivity (PSR sort gate)” value is recorded as “low polyreactivity”.
To “QVQLVESGGGLVQAGGSLRLSCASSGFIFASYAMGWYRQAPGKERELVAAISYRGGTTYYADSVKGRFTISRDNAKNTVYLQMNSLKPEDTAVYYCAADSPENRYNYWGQGTQVTVSS” belongs “high polyreactivity”; to “QVQLVESGGGLVQAGGSLRLSCASSGFIFPLYAMGWYRQAPGKERELVAAINWRGGTTYYADSVKGRFTISRDNAKNTVYLQINSLKPDDTAVYYCAATHWAYSRVPYDYWGQGTQVSVSS”, “high polyreactivity”; to “QVQLVESGGGLVQAGGSLRLSCASSGFTFLINAMGWYRQAPGKERDLVAAIRSGGSTNYADSVKGRFTISRDNAKNTVYLQMNSLKPEDTAVYYCAARRYYPYKYRYGYWGQCTQVTVSS”, “high polyreactivity”.
“QVQLVESGGGLVQAGGSLRLSCASSGFTFTSYAMGWYRQAPGKERELVAAISSSGGSTYYADSVKGRFTISRDNAKNTVYLQMNSLKPEDTAVYYCAAEYGYGEMDSWGQGTQVTVSS”: the “polyreactivity (PSR sort gate)” value was “high polyreactivity”.
